Drawing on article doi:10.1101/2022.06.09.495492 (2022), this text covers Kd for one molecule.

Assay [1] concerns the target His-△237 (T. vaginalis). Kind of assay: ELISA; G-actin. (In general: An ELISA detects its analyte on a solid surface through an enzyme-linked reagent.)
Assay [2] addresses His-△237 (T. vaginalis). Nature of the assay: ELISA; F-actin.

Broadly, the Kd is the equilibrium constant for the complex coming apart. A lower Kd goes with higher affinity.

B1: GST-Tvactin (natural protein)
chain: not shown
Regarding B1, the Kd came out at 9.01 µM with His-△237 [1] and 10.3 µM in the assay with His-△237 [2].
